According to the nanobody polyreactivity screen of Harvey et al. (2022):

Assay: yeast display, Sf9 membrane polyspecificity reagent, FACS + sequencing; frameworks hold sequencing errors
Outline: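 A synthetic nanobody library was expressed on Saccharomyces cerevisiae BJ5465 by galactose induction for 36–48 hours. The library was stained for 1 hour at 4 °C with 10% biotinylated, detergent-solubilized Sf9 membrane reagent and enriched with streptavidin microbeads before FACS. Low and high (top ~1%) gates were set on anti-HA fluorescence for expression and streptavidin fluorescence for reagent binding, and each polyreactivity label reflects the gate of origin.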

Sequence	polyreactivity (PSR sort gate)
QVHLVESGGGLVQAGGSLRLSCAASGFTFLKNAMVWNRQAPWKERELVAAITSSGGRTYYADSVKGRFTISRDNAKNTVYLQMNSLKPEDTAVYYCNKGPLPGYDYWGQGTQVTVSS	high polyreactivity
QVHLVESGGGLVQAGGSLRLSCAASGSTFGRYTMGWYRQAPGKERELVAAITSGGGSTYYADSVKGRFTISRDNAKNTVYLQMNSLKPEDTAVYYCAARSLVQDHAYGYNYWGQGTQVTVSS	low polyreactivity
QVQLVESGGGLVQAGGSLRLSCAASGFIFISYMGCDRQAPGKERELVAAISWSGTRTYYADSVKGRFTISRDNAKNTVYLQMNSLKPEDTAVYYCAARKYYDRYFYWGQGTQVTVSS	low polyreactivity
QVQLVESGGGLVQAGGSLRLSCAASGSTFYVNVMGWYRQAPGKERELVAGITIRDGSTYYADSVKGRFTISRDNAKNTVYLQMNSLKPEDTAVYYCARAGDGEYKRDYWGQGTQVTVSS	low polyreactivity
QVQLVESGGGLVQAGGSLRLSCAASGFTFRAYAMGWYRQAPGKASELVATISGRGGSTYYADSVKGRFPISRDNAKNTVYLQMNSLKPEDTAVYYCARRFWSEYVTGVGGYNFWGQGTQVTVSS	high polyreactivity
QVQLVESGGGLVQAGGSLRLSCAASGFIFSSYAMGWYRQAPGKEREFVAVISTGGGSTYYADSVKGRFTLSRDNAKNTVYLQMISLKPEDTAVYYCAAKLYDSGGRYWYDYWGQGTQVTVSS	high polyreactivity
QVQLVESGGGLVHAGGSLRLSCSATRSIFLGNAMGWYRQAPGKERELVAAISRSGGSTYYADSVKGRFTISRDNAKNTVYLQMNSLKPEDTAVYYCAAVVSSRVKQFEYWGQGNQVTVSS	high polyreactivity
QVQLVESGGGLVQAGGSLRLSCAASGLIFGRYAMGWYRQAPGKERELVAAITGRGGSTYYADSVKGRFTISRDNAKNTVYLQMNSLKPEDTAVYYCNKVYNPKSYIQYDYWGQGTQVTVSS	high polyreactivity
QVQLVESGGGLVQAGGSLRLSCAATGRTFRYYAMGWYRQAPGKERELVAAISSGGSTNYADSVKGRFTISRDNAKNTVYLQMNSLKPEDTAVYYCAALWSGNKFNYWGQGTQVTVSS	low polyreactivity
QVQLVESGGGLVQAGGSLRLSCAASGRTFYLYAMGWYRPAPGKERELVAAITWRGGSTYYADSVKGRFTISRDNAKNTVYLQMNSLKPEDTAVYYCAAVTFFYYSAVRYEYYYWGQGTQVTVSS	high polyreactivity
QVQLVESGGGLVQAGGSLRLSCAASRRIFYGYAMGWYRQAPGKERELVAAISLRTGSTFYADSVKGRFTISRDNAMNTVYLQMNSLKPEDTAVYYCAKEESYRPYIYVMDYWGQGTQVTVSS	low polyreactivity
QVQLVESGGGLVQAGGSLRLSCAASGSIFRWYDMGWYRQAPGKERELVAAITWSGSTYYADSVKGRFTISRDNAKNTVYLQMNSLKPEDTAVYYCAAGSRYSYAYTMDYWGQGTQVTVSS	high polyreactivity
QVQLVESGGGLVQAGGSLRLSCAASGRTFYGYAMGWYRQAPGKERELVAAISWTGGRTYYADSVKGRFTISRDNAKNTVYLQMNSLKPEDTAVYYCNARRRGDSGDGYIYGYWGQGTQVTVSS	high polyreactivity
QVQLVESGVGIVQAGGSHRLSCAASGRICVRNAMGWYRQAPGKERQLVAAISWSGGTNYADSVKGRFTISRDNAKNTVYLQMNSLKPEDTAVYYCAALSVWSYYTYYYWGQGTQVTVSS	high polyreactivity
QVQLVESGGGLVQAGGSLRLSCGASGFTFYGYAMGWYRHGPGKESELVAAITGSGARTNYADSVKGRFTISRDKAKNTVYLQMNSLKPEDTAVYYCNKVGVTRDGSTYRVREDDYWGQGTQVTVSS	high polyreactivity
QVQLVESGGGLVQAGGSLRLSCAASGRTFQLNAMGWYRQGPGNERELVAAISTRGGSTYYADSVKGRFTISRDNAKNTVYLQMNSLKPEDTAVYYCAKDPSFTRGYKEGGGYDYWGQGTQVTVSS	high polyreactivity
QVQLVESGGGLVQAGGSLRLSCAASGFTFAYYAMGWYRQAPGKEWELVAAISRGGTSTYYADSVKGRFTISRDKAKNTVYLQMNTLKPEDTAVNYCNAGKVGYSLYDYCGQGTQVTVSS	high polyreactivity
QVKLVESGGGLVQAGGSLRLSCAASGRTFGVYAMGWYRQAPGKEREFVATITSRGGRTYYADSVKGRFTISRDNAKNTVYLQMNSLKPEDTAVYYCAVGRGSLRGRTDGGYWGQGTQVTVSS	high polyreactivity
QVQLVESGGGLVQAGGSLRLSCAASGITFKYYTMGWYRQAPGKERELVAAITSRAGRTYADSVKGRFTISRDNAKNTVYLQMNSLKPEDTAVYYCARRVDYPYAYDYWGQGTQVTVSS	high polyreactivity
QVQLVESGGGLVQAGGSLRLSCAASGSIFGWYAMGWYRQAPGKERELVAAITFSSVSTYYADSVKGRFTISRDNAKNTVYLQMNSLKPEDTAVYYCAAVVYYTFDYWGQGTQVTVSS	low polyreactivity
QVQLVESGGGLVQAVCSLRLSCAASGIIFVYYVMGWYRQAPGKERELVASIDGSGGSTNYADSVKGRFTISRDNAKNTVYLQMNSLKPEDTAVYYCAASGRYDYDYWGQGTQVTVSS	low polyreactivity

Sequence	polyreactivity (PSR sort gate)
QVQLVESGGGLVQAGGSLRLSCAASGSPFYGYGMGWYRQAPVKERELVAASTRSGGSTYYADSVKGRFTRSRDNAKNTVYVQKNSLKPEDTEVYYCNKSGYKGGVGYDYWGQGTQVTVSS	high polyreactivity
QVQLVESGGGLVQAGGSLRLSCAASGIIFKGYPMGWYRPAPGKERELVAGISSGGTTYYADSVKGRFTISRDNAKITVYLQMNSLKPEDTAVYYCGAGPRRSYRFDYWGQGTQVTVSS	high polyreactivity
QVQLVESVGGLVQAGGSLRLSCAASGRTIVTNAIGWYRQAPGKERELVAAISRRTGSTYYADSVKGRFTISRDNAKNTVYLQMNSLKPEDTAVYYCAAKGYGSAPTYRHNYWGQGTQVTVSS	high polyreactivity
QVQLVESGGGLVQAGGSLRLSCAASGSTFFYNAMGWYRQAPGKERELVAAITVTGTSTYYADSVKGRFTISRDNAKNTVYLQMNSLKPEDTGVYYCNTSLKRRRLRFNYWGQGTQVTVSS	low polyreactivity
QVQLVESGGGLVQAGGSLRLSCAASGSTFVYNAMGWYRQAPGKERELVAAITRRGGGTYYADSVKGRFTISRDNAKNTVYLQMNSLKPEDTAVYYCAADSRGWSLDGDYWGQGTQVTVSS	low polyreactivity
QVQLVESGGGLVHAGGSLRLSCAASGSTFHRYAMGWYRQAPGKERELVARINGSGGSTYYADSVKGRFTISRDNAKNSVYLQMNSLIPEDTAVYYCAAELDVYVSIGSRFHFDYWGQGTQVTVSS	low polyreactivity
QVQLVESGGGLVQAGGSLRLSCAASGSTFGGYAMGWYRPAPGKERELVAAISGGGRTYYADSVKGRFTISRDNAKNTVYLQMNSLKPADTAVYYCNAGYWFGYRLFTGYYWGQGTQVTVSS	low polyreactivity
QVQLVESGGGLVQAGGSLRLSCAASGSTFVNNAMGWYRQAPGKERELVASITQSGGSTFYADSVKGRFTISRDNAKNTVYLQMNSLKPEDTAVYYWGQGTQVTVSS	low polyreactivity
QVQLVESGGGLVQAGGSLRLSCAASGFIFWKYAMGWYRQAPGKEREFVAAINWRGDRTYYADSVKGRFTISRDNAKNTVYLQMNSLKPEDTAVYYCAAVVGYYHRRFDYWGQGTQVTVSS	high polyreactivity
QVQLVESGGGLVQAGGSLRLSCAASGFTFGRNAMGWYRQAPGKERELVASIDWSGGSTYYADSVKGRFTISRDNAKNTVYLQMNSLIPEDTAVDYCAVGPNSVGNRSYGFDYWGQGTQVTVSS	low polyreactivity
QVQLVESGGGLVQAGGSLRLSCAASGNIFSRYAMGWYREPRGKERELVAAISSSGGTTYYADSVKGRFTISRDNAKNTVYLQMNSLKPEDTAVYYCNARRRQIYSEFGYWGQGTQVTVSS	high polyreactivity
QVQLVESGGGLVQAGGSLRLSCAASGIIFYHNTMGWYRQAPGKERELVAAISGSGGSTYYADSVKGRFTISRDNEKNTVYLQMKSLKPEDTAVYYCAAYRRRYPGFDYWGQGTQVTVSS	high polyreactivity
QVQLVESGGGLVQARGSLRLSCAASGSILDYYVMGWYRQAPGKERELVAAIRGGGSTYYADSVKGRFTISRDNAKNTVYLQMNSLKPEDTAVYYCAKDSQTARDFDYWGQGTQVTVSS	low polyreactivity
QVQLVESGGGLVQAGGSLRLSCAASGGTFVYALGWYRQAPGKERELVAAISARTTGTYYADSVKGRFTISRDNAKNTVYLQMNSLKPEDTAVYYCAAKSKLSRDLYSWGQGTQVTVSS	low polyreactivity
QVQLVESGGGLVQAGGSLRLSCAASGRTFIRYAMGWYRQAPGKERELVAAISWSGDRTYYADSVKGRFTISRDNAKNTVYLQMNSLKPEDTAVYYCNAYRYLRTATFLKFDYWGQGTQVTVSS	high polyreactivity
QVQLVESGGGLVQAGGSLRLSCAAYGIIFRYYAMGWYRQAPGKERELVAAITASGGSTYYADSVKGRFTISRDHAKNTVYLQMNSLKPEDTAVYFGAAGSYFQHLIGYSTVSYGRNYWGQGTQVTVSS	high polyreactivity
QVQLVESGGGLVQAGGSLRLSCAASGRTFVVNAMGWYRQAPGKERELVAAIYADSVKGRFTISRDNEKNTVYLQMNSLKPEDTAVYYCAASGGTWVNYRPEYDYWGQGTQVTVSS	low polyreactivity
QVQLVDSGGGLVQAGGSLRLSCAASGLIFSDYAMGWYRPAPGKERELVAAIRSGGRTYYADSVKGRFTISRDNATNTVYLEMNSLKPEDTAVYFCNKLYRRYPVPREYDYWGQGTQVTVSS	high polyreactivity
QVQLVESGGGLVQAGGSLRLSCAASGSTFGRNAMGWYRQSPGKERELVAAISSRGGGTYYADSVKGRFTISRDNAKNSVYLQMNSLKPEDTAVYYCAADYVYGYYPKYTYKPSGYWGQGTQVTVTS	high polyreactivity
QVQLVESGGGLVQAGGSLRLSCAASGSTFGTNAMGWSRQAPGKERELVAAITYSGGSTYYADSVKGRFTISRDNAKNTVYVQLNSLKPEDTAVYYCAARGHSSKYLWSYEYYYWGQGTQVTVSS	low polyreactivity
